{"source": "paper PMC9215706", "about": "(Cell reports, 2022)", "binders": {"B1": {"name": "recombinant Rad6 (enzyme)", "chain": "MSTPARRRLMRDFKRMKEDAPPGVSASPLPDNVMVWNAMIIGPADTPYEDGTFRLLLEFDEEYPNKPPHVKFLSEMFHPNVYANGEICLDILQNRWTPTYDVASILTSIQSLFNDPNPASPANVEAATLFKDHKSQYVKRVKETVEKSWEDDMDDMDDDDDDDDDDDDDEAD"}}, "biological_target": "T1, Recombinant Ubiquitin activating enzyme E1 (human) - UBA1 (human, UniProt P22314 1-1058)", "T1 sequence": "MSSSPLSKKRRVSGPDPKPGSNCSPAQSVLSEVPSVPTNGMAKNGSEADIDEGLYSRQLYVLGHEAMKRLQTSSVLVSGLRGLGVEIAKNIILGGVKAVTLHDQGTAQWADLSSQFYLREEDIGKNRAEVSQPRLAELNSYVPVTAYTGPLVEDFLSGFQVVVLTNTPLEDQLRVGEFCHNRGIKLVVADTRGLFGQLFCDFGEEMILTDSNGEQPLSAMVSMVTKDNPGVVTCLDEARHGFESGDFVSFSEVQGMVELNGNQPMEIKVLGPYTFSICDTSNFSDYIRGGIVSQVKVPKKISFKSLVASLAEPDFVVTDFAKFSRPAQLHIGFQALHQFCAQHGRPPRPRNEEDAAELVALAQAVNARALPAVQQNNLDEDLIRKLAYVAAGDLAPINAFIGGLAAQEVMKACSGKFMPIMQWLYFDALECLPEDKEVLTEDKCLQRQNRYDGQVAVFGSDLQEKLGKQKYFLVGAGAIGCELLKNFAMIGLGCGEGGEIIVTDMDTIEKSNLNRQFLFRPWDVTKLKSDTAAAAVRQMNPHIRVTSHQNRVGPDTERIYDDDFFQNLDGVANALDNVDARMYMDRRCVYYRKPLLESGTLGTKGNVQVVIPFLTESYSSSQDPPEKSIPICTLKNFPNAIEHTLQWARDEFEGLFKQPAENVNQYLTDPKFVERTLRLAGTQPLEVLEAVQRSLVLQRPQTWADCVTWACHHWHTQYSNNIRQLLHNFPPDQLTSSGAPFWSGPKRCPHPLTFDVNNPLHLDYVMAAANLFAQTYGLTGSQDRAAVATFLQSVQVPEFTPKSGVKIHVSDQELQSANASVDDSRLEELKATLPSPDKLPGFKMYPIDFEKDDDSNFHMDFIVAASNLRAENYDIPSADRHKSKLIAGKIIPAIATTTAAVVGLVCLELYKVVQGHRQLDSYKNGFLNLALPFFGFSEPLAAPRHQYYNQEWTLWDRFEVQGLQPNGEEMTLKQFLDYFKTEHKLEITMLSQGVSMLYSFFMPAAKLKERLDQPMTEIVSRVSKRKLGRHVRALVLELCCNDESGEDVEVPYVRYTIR", "assay": "in vitro oxidation and non-reducing immunoblot of a disulfide-linked complex", "data": [{"binder": "B1", "values": [{"measurement": "binding result", "result": "binds"}]}]}
